Data as given in the nanobody polyreactivity screen of Harvey et al. (2022).

Experiment: yeast display, Sf9 membrane polyspecificity reagent, FACS + sequencing; frameworks hold sequencing errors
Outline: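 In a synthetic yeast display library (Saccharomyces cerevisiae BJ5465), nanobody expression was induced with galactose for 36–48 hours. FACS gates were set low and high (top ~1%) using anti-HA fluorescence for expression and streptavidin fluorescence for binding of the Sf9 membrane reagent. Each polyreactivity label is drawn from the gate of origin.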

Sequence	polyreactivity (PSR sort gate)
QVQLVESGGGLVQAGGSLRLSCADSGRIYYSNAMGWSRQAPGKEREWVAAISRSGVRTYYADSVKGRYSISRDNAKNTVYLQKNSLKPEDTADYYCAAVIYGTTPQDEYDYWGQGTQVTVSS	low polyreactivity
QVQLVESGGGLVQAGGSLRLSCADSGRTFEPYTMGWYRQAPGKERELVAAISWRGGSTYADSVKGRFTISRDNAKNTVYLQMNSLKPEDTAVYYCAAEPYWHLDSQYFGREYDYWGQGTQVTVSS	low polyreactivity
QVQLVESGGGLVQAGGSLRLSCADSGRTFFYYAMGWYRQAPGKERELVAAITTGGSTNYADSVKGRFTISRDNAKNTDYLQMKSLNPEDTEVYFCNADYDKGVRFNFTASFGEFDYWGQGTQVTVSS	low polyreactivity
QVQLVESGGGLVQAGGSLRLSCADSGRTFYGNAMGWYRQAPGKERELVAAISISGGSTYYADSVKGRFTISRDNAKNTVYIQMNSLKPEDTAVYYCNAQEYYYYPYVYDSDYWGQGTQVTVSS	low polyreactivity
QVQLVESGGGLVQAGGSLRLSCADSGRTFYINAMGWYRQAPGKERELVAAISSSGGITYYADSVKGRFTISRENAKNTVYLQMNSLKPEDTAVYYCNAPYVYSWHYDYWGQGTQVTVSS	low polyreactivity
QVQLVESGGGLVQAGGSLRLSCADSGRTFYVNAMGWYRQAPGKEREFVAAISRRGGSTYYADSVKGRFTISRDNAKNTVYLQMNSLKPEDTAVYYCIAAYSSRYDYWGQGTQVTVSS	high polyreactivity
QVQLVESGGGLVQAGGSLRLSCADSGSIFDFNAMGWYRQAPGKERELVAAITWSGGSTYYADSVKGRFTLSRDNAKNTVYLQMNSLKPEDTAVYYCAADSLYDDFYYWGQGTQVTVSS	low polyreactivity
QVQLVESGGGLVQAGGSLRLSCADSGSIFKYYVMGWYRQAPGKERELVADITSGGSTKYADSVKGRFTISRDNAKNTVYLQMNSLKPADTAVYYCAASWWYEIFDYWGQGTQVTVSS	low polyreactivity
QVQLVESGGGLVQAGGSLRLSCADSGSIFRYYFMGCYRQAPGKERELVSAISSGGRTYYADSVKGRFTISRDNAKNTVYLQMNSLNPEDTAVYYCNDQGLFYCEMDYWGQGTQVTVSS	high polyreactivity
QVQLVESGGGLVQAGGSLRLSCADSGSIFWYYAMGWSRQAPGKETELVADITSTGGSTYYADSVKGRFTISRDYAKNTVYFQMNSLKPEVSAVYYCAAEACYHWYYSLGYWGQGTQVTVSS	high polyreactivity
QVQLVESGGGLVQAGGSLRLSCADSGSIFYTYAMGWYRQAPGKEREFVAAITQTGGTTYNADSVKGRFTISRDNAKNTVYFQMNSLKQEDTAVYYCAARYRAYKLYGRHYYWGQGTQVTVSS	high polyreactivity
QVQLVESGGGLVQAGGSLRLSCADSGSILTRNAMGWYRQAPGKERELVAAISYSGVRTYYADSVKGRFTISRDNAKNNVYLQMNSLKQEDTAVYYCNAVISSRYDYWGQGTQVTVSS	high polyreactivity
QVQLVESGGGLVQAGGSLRLSCADSGSISYSYAMGWYRQAPGKDRELVAAISWRGVSTYYADSVKGRFTISRDNAKNTVYLQMNSLKPEDTAVYYCNAVHHYPEHIGGGYWGQGTLVTVSS	low polyreactivity
QVQLVESGGGLVQAGGSLRLSCADSGSTFNSNVMGWYRQAPGKERELVAAISRSGGNTYYADSVKGRFTISRDNAKNTVYLQMNSLKPEDTAVYYCNKDGRYPYDYWGQGTQVTVSS	high polyreactivity
QVQLVESGGGLVQAGGSLRLSCADSGSTFYYYTKGWYRQAPGKERELVAAISFSGGSTYYADSVKGRFTISLYNAKNTVYLQMNSLKPEDTAVYDCAAAQRVYKSWGYYWGQGSQVTVSS	low polyreactivity
QVQLVESGGGLVQAGGSLRLSCADSGYTFGRNAMGWYRQAPGKERELVATISQRGGSTYYADSVKGRFTISLDNAKNTVYLQLNSLKPEDTAVYYCAAGPIYRYRRYYYWGQGTQVTVSS	high polyreactivity
QVQLVESGGGLVQAGGSLRLSCADSRSIITNNAMGWYRQAPGKERELVAAISGSGGSTYYADSVKGRFTISRDNAKNTVYLQMNSLKPEDTAVYYCAANKSSRRMNYWGLGTQVTVSS	high polyreactivity
QVQLVESGGGLVQAGGSLRLSCAGSGFISYYYAMGWYRQAPGKEREFVAAITSSGGSTRYADSVKGRFTISRDNAKNTVYLQMNSLKPEDTAVYYCNADYYWFFDFFDYDYWGQGTQVTVSS	low polyreactivity
QVQLVESGGGLVQAGGSLRLSCAGSGINFHLYAMGWYRQAPGKERELVAAISWNGSSTYYADSVKGRFTISRDNAKNTVYLQMNSLKPEDTAVYYCAASYGYFEDYGYWGQGNQVTVSS	low polyreactivity
QVQLVESGGGLVQAGGSLRLSCAGSGLIFDDYPMGWYRQAPGKERELVAAISWSDGTTYYADSVKGRFTISRDNAKNTVYLQMNSLKPEDTAVYYCAAEEVSGWEYDYWGQGTQVTVSS	high polyreactivity
QVQLVESGGGLVQAGGSLRLSCAGSGRSFVYNAMGWYRQAPGQDRELVAAITSGGRTYYADSVKGRFTISRDNAKNTVYLQINSLKPEDTAVYDCAKRFWFNTYAAHPAGFDYWGQGTQVTVSS	low polyreactivity
QVQLVESGGGLVQAGGSLRLSCAGSGRTSLAYAMGWYRQAPGKERELVAGITSGGNTNYADSVKGRFTISCDNAKNTVYLQMNSLKPEDTAVYYCNKKKRWQWYSESVLDYLGFYSWGQGTQVTVSS	low polyreactivity

Sequence	polyreactivity (PSR sort gate)
QVQLVESGGGLVQAGGSLRLSCAGSGSTFFEYAMGWYRQAPGKDREFVAGISWSGGITYYADSVKGRFTISRDNAKNTVYLQMNSLKPEDTAVYYCASAGGDWYGVDYWGQGTQVTVSS	low polyreactivity
QVQLVESGGGLVQAGGSLRLSCAGSGSTFQNNAMGWYSQAPGKERELVAAISRSSGRRYYADSVKGRFTISRDHAKNTVYCQMNSLKPEDTAGYYCAASLGGYITRYNYWGQGTQVTVSS	high polyreactivity
QVQLVESGGGLVQAGGSLRLSCAGSGSTFRSNALGWYRQEPGKVRELVAAISLRGGSTDYADSVKGRFTISRDNAKNTVYLQMNSLTPEDTAVYFCAKVSKRVGFPTAMNYWGHGTQVTVSS	high polyreactivity
QVQLVESGGGLVQAGGSLRLSCAHSGFIFCNYAMGWYRHAPGKERELVAAITSGGTSTYYADSVKGRFTISRDNAKNTVYLQMNCLKPEDTAVYFCAAVTGLFSYWDYSAMYYWGQGTQVTVSS	high polyreactivity
QVQLVESGGGLVQAGGSLRLSCAHSGYILGGYGMGWYRQAPGKERELVAVITSSGSTDYADSVKGRYTISRDNAMNTVYVQMNTLKPEDSAGYYCAADFLWYIYNIGTSLEYDYWGQGTQVTVSS	low polyreactivity
QVQLVESGGGLVQAGGSLRLSCAMGWYRPAPGKERELVAGITGGGRTHYADSVKGRFTISRDNAKNTVYLQMNSLKPEDTAVYYCAAGGVRSQVPWSWYYYWGQGTQVTVSS	low polyreactivity
QVQLVESGGGLVQAGGSLRLSCAPPDLPSVVMLWDGIDRRLGKKGSSLPLLLLLVVSHADSVKGRFTISRDNAKNTVYLQMNSLKPDDTAVYYCAVAVLPWQLYSESYAEYDYWGQGTQVTVSS	low polyreactivity
QVQLVESGGGLVQAGGSLRLSCAPSGFFFYSNTMGWYRQAPGKERELVDTISKRSGNTYYADSVKGRFTISRDFAKNTVYLQMNSLKPEDTSVYYCAADFWVRHKMWYPYTSIQAYNYWGQGTQVTVSS	high polyreactivity
QVQLVESGGGLVQAGGSLRLSCAPSGFIFPLYTMGWYTQAPGKERELVAAIDFSGASTYYADSVKGRFTISRDNAKNTVYLLMNSLKPEDTAVYYCATYGSYRITVFYAYYYWGQGTQVTVSS	low polyreactivity
QVQLVESGGGLVQAGGSLRLSCAPSGFIFTRYAMGWYRQAPGKERELVAAISWSGGSTYYADSVKGRFTISRDNAKNTVYLQMNSLKPEDTAVYYCAADGSDSYDYWGQGTQVTVSS	low polyreactivity
QVQLVESGGGLVQAGGSLRLSCAPSGGTFYSYAMGWYRQAPGKESELVAAISRRGASTYYADSVKGRFTISRDNAKNNVYLQMNSLKPEDTAGYYCAAKGRSYGVTRMYYWGQGTQVTVSS	high polyreactivity
QVQLVESGGGLVQAGGSLRLSCAPSGHIFLQNAMGWYRQAPGKERELVAGITYSDTSTYADSVKGRFTISRDNAKNTVYLQMNSLKPEDTAVYYCEYYYWGQGTQVTVSS	low polyreactivity
QVQLVESGGGLVQAGGSLRLSCAPSGITFGEYAMGWYRPAPGKERELVAAISRSGGSTYADSVKGRFTISRDNAKNTVYLQMNSLKPEDTAVYYCAAYSGVGYLWFDYWGQGTQVTVSS	low polyreactivity
QVQLVESGGGLVQAGGSLRLSCAPSGITFRFYAMGWYRQAPGKEREFVAAISRSDSSYYADSVKGRFTISRDNAKNTVYLHMNSLKPEDSAVYYCAADSYRSAQGLDYWGQGSQVTVSS	high polyreactivity
QVQLVESGGGLVQAGGSLRLSCAPSGLILDGNVMGWYRQAPGTERELVAAINTSGGSTYYADSVKGRFTISRDNAKNTVYLQMNSLKPEDTAVYYCAARYPTDYDYWGQGTQVTVSS	low polyreactivity
QVQLVESGGGLVQAGGSLRLSCAPSGLTFTTYAMGWYRQAPGKERELVAAISRRGSRTYYADSVKGRFTISRDNAKNTVYLQMNSLKPEDTAVYYCNALTGSFKTYSFDYWGQGTQVTVSS	high polyreactivity
QVQLVESGGGLVQAGGSLRLSCAPSGLTFVGYAMGWYRQAPGKERELVAAISGVGTTNYADSVKGRFTISRDNAKNTVYLQMNSLKPEDTAVYYCATAPYPVPYRLYDYWGQGTQVTVSS	low polyreactivity
QVQLVESGGGLVQAGGSLRLSCAPSGNTFEHYAMGWYRQAPGKERELVAAISYSGGSTYYADSVKGRFTISRDNAKNTVYLQMNSLKPEDTAVYYCNARGRASATGRRGRPDPFGYWGQGTQVTLSS	high polyreactivity
QVQLVESGGGLVQAGGSLRLSCAPSGRIFLPYAMGWYRPAPGKEWELVAGISSGGSTKYADSVKGRFTISRDNAMNTVYLQMNSLKPEDTAVYYCNRRFPIYCSRFGYYYWGQGTQVTVSS	high polyreactivity
QVQLVESGGGLVQAGGSLRLSCAPSGRIFTPYAMGWYRQAPGKERELVAVIRDGSTYYADSVKGRFTISRDNAKNTVYLKMNSLKPEDTAVYYCRYDIWVWWSGAYDYWGQGTQVNVSS	low polyreactivity
QVQLVESGGGLVQAGGSLRLSCAPSGRIFVYYTMGWYRQAPGKERELVAAITGSGGSTYYADSVKGRFTISRDNAKYTVYLQMNSLKPVDTAVYYCAVYDSYRKFKYWGQGTQVTVSS	high polyreactivity
